Measurements taken from the supplement of paper PMC9732359.
± gives the uncertainty stated by the source.

Experiment: protein stability index of a GFP-peptide fusion (yeast GPS) (PSI 1-4); higher = more stable; sorted into four equal gates, so the index is relative within each strain
How it was run: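 The protein stability index combines read frequencies across sorting gates, each weighted by its gate number and then summed. To obtain those frequencies, a pooled yeast library of GFP fusions to tiled 17-residue yeast protein peptides, on a plasmid also expressing Cherry, was grown to mid-log phase in leucine-free medium. The cells were sorted into four equal gates by GFP/Cherry ratio before plasmid amplification by PCR and Illumina sequencing.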

| Sequence | protein stability index (doa10∆) | protein stability index (pdr5∆) | protein stability index (san1∆) | protein stability index (ubr1∆) |
| --- | --- | --- | --- | --- |
| GKRQVLLRPSSKVIIKF [RPS22B] | 2.83 ± 0.1 | 2.21 ± 0.055 | 3.25 ± 0.057 | 2.15 ± 0.049 |
| KDLQWLEFARITPMNDD [SIN4] | 2.94 ± 0.1 | 3.19 ± 0.088 | 3.14 ± 0.055 | 3.33 ± 0.097 |
| DIQAMCTEAGLLALRER [RPT2] | 2.65 ± 0.088 | 3.33 ± 0.12 | 3.33 ± 0.047 | 3.26 ± 0.055 |
| ERKQIHEFKLIVGKKIQ [GRR1] | 2.82 ± 0.045 | 2.58 ± 0.065 | 3.03 ± 0.06 | 3.13 ± 0.058 |
| NILALNLVSLLIIVTRK [YML031W/NDC1] | 1.92 ± 0.072 | 1.35 ± 0.044 | 1.2 ± 0.11 | 1.32 ± 0.039 |
| VEVKDASLVDYVQVRQP [RPS5] | 2.9 ± 0.3 | 3.41 ± 0.17 |  | 1.18 ± 0.067 |
| DTRFGGRMDMTRLYDYE [SSN2] | 3.14 ± 0.1 | 3.23 ± 0.081 | 3.47 ± 0.045 | 3.21 ± 0.061 |
| QEEFVQFLQLDNDGFSF [ECM29] | 1.9 ± 0.087 | 3.13 ± 0.12 | 1.93 ± 0.11 | 2.41 ± 0.11 |
| FEVEMILMQQQMMARMA [SRP54] | 1.17 ± 0.12 | 1.19 ± 0.076 | 2.34 ± 0.15 | 1.73 ± 0.27 |
| YENKDNLTAGIIVAGYD [PRE3] | 2.71 ± 0.047 | 2.91 ± 0.05 | 2.98 ± 0.04 | 2.78 ± 0.036 |
| QEPFLNSSNYAELFNND [PRP8] | 2.61 ± 0.051 | 2.86 ± 0.046 | 2.55 ± 0.071 | 2.82 ± 0.048 |
| TSLLDSLISVLEASLNS [YJL039C/NUP192] | 1.94 ± 0.083 | 1.77 ± 0.09 | 1.87 ± 0.19 | 1.58 ± 0.08 |
| FNKSAELSRIENEVENI [YCS4] | 3.51 ± 0.17 | 3.4 ± 0.19 | 3.27 ± 0.06 | 3.39 ± 0.17 |
| GGIETILEHTLFKGTGF [PRP8] | 3.3 ± 0.22 | 3.28 ± 0.21 | 3.21 ± 0.14 | 3.47 ± 0.13 |
| ASKGIDRLSLQDRQQLL [ECM29] | 3.08 ± 0.083 | 3.11 ± 0.07 | 3.19 ± 0.085 | 3.21 ± 0.056 |
| SRKRAKKMTKKAKRSNL [PRP8] | 2.94 ± 0.07 | 2.16 ± 0.069 | 2.11 ± 0.094 | 2.52 ± 0.082 |
| PDFKPWEHTAAEDQILA [SRB8] | 2.83 ± 0.12 | 2.95 ± 0.12 | 3.03 ± 0.075 | 3.02 ± 0.091 |
| IAVLRSKEWFQLDDEDF [FAS1] | 2.03 ± 0.041 | 2.09 ± 0.041 | 1.81 ± 0.058 | 2.32 ± 0.038 |
| KTHRGLRKVACIGAWHP [RPL3] | 1.41 ± 0.064 | 3.19 ± 0.12 | 2.23 ± 0.087 | 2.92 ± 0.076 |
| AVGNLGNAVTVTEDGTV [RPL22A] | 1.46 ± 0.062 | 1.96 ± 0.094 | 2.22 ± 0.095 | 1.99 ± 0.094 |
| HECRLRDMTYSAPIYVD [RET1] | 2.04 ± 0.087 | 1.67 ± 0.099 | 2.01 ± 0.21 | 1.91 ± 0.061 |
| IDGKVIQAGKFDNKSTS [SNF2] | 1.36 ± 0.057 | 1.42 ± 0.064 | 1.9 ± 0.21 | 1.95 ± 0.089 |
| AASALDEKEKQLAVANE [SIR4] | 2.92 ± 0.081 | 3.28 ± 0.072 | 3.3 ± 0.055 | 3.36 ± 0.073 |
| KPLGTTRAMEYLKFREL [RPB2] | 2.49 ± 0.065 | 2.86 ± 0.077 | 3.13 ± 0.068 | 2.9 ± 0.056 |
| AAGVERLIFYPDEYEQL [PRE3] | 2.96 ± 0.14 | 2.86 ± 0.13 | 3.1 ± 0.093 | 2.69 ± 0.16 |
| YKVEHPFFARFKLRIQT [RPB11] | 2 ± 0.097 | 1.28 ± 0.057 | 1.37 ± 0.11 | 1.31 ± 0.16 |
| LKGIQEFGADWYKVAKN [SWI3] | 3.25 ± 0.071 | 3.34 ± 0.072 | 3.37 ± 0.043 | 3.34 ± 0.057 |

| Sequence | protein stability index (doa10∆) | protein stability index (pdr5∆) | protein stability index (san1∆) | protein stability index (ubr1∆) |
| --- | --- | --- | --- | --- |
| SPFFVLDEVDAALDITN [SMC1] | 2.39 ± 0.093 | 2.78 ± 0.071 | 2.63 ± 0.066 | 2.69 ± 0.057 |
| LQRKDYTSIVQCCEFMT [YML103C/NUP188] | 1.48 ± 0.059 | 1.62 ± 0.048 | 2.05 ± 0.079 | 1.9 ± 0.044 |
| VTKITDMLLHKYYIVSS [SRB8] | 1.45 ± 0.076 | 1.14 ± 0.068 | 1.65 ± 0.15 | 1.57 ± 0.077 |
| GALVDRTQPWSIMPDLY [RPS0A] | 2.71 ± 0.09 | 2.82 ± 0.091 | 2.87 ± 0.062 | 3.11 ± 0.032 |
| ISKTVRFNVVKVSAAAG [RPS11A] | 3.19 ± 0.17 | 1.6 ± 0.13 |  | 1.64 ± 0.11 |
| TFANPNRTFTDPPFRIE [TAF14] | 2.35 ± 0.078 | 2.76 ± 0.075 | 2.7 ± 0.094 | 2.27 ± 0.039 |
| EFFNPEIFHLLQPLEEG [SIN4] | 1.88 ± 0.079 | 1.84 ± 0.064 | 1.59 ± 0.086 | 2.07 ± 0.056 |
| ILDNTENYDDTELRQLF [DSN1] | 3.15 ± 0.066 | 3.28 ± 0.068 | 3.37 ± 0.042 | 3.29 ± 0.05 |
| HRLSILSHYAKIRPWRT [RPO31] | 2.81 ± 0.068 | 2.77 ± 0.066 | 2.85 ± 0.087 | 2.84 ± 0.052 |
| AKICALLFFNFSHSLTT [NUT1] | 1.43 ± 0.045 | 1.45 ± 0.036 | 1.4 ± 0.051 | 1.27 ± 0.026 |
| TKLDQVWGSETVASSKV [RPL4A] | 2.72 ± 0.075 | 3 ± 0.1 | 2.84 ± 0.05 | 2.98 ± 0.044 |
| EEPAKEEAPAPTPAASA [FAS2] | 2.75 ± 0.14 | 2.82 ± 0.12 | 2.69 ± 0.26 | 2.98 ± 0.14 |
| SVKLKQKRLEAGALNLA [DIS3] | 3.42 ± 0.13 | 3.11 ± 0.12 | 3.36 ± 0.081 | 3 ± 0.071 |
| VRIDKALELDDTVVSRV [ECM29] | 2.92 ± 0.11 | 2.91 ± 0.15 |  | 3.13 ± 0.097 |
| GAIIGWTRGTGLMSANN [FAS2] | 2.89 ± 0.087 | 2.83 ± 0.083 | 3.08 ± 0.091 | 2.78 ± 0.29 |
| RPTEKPVGRELDPISLI [RPN13] | 2.95 ± 0.11 | 3.4 ± 0.12 | 3.33 ± 0.08 | 3.19 ± 0.094 |
| GKASLFAQGKRRYDRKQ [RPL42A] | 3.28 ± 0.11 | 3.09 ± 0.1 | 3.4 ± 0.088 | 3.4 ± 0.072 |
| VKLLKTTVPIVSKKRQK [POP3] | 3.2 ± 0.1 | 2.95 ± 0.069 | 2.87 ± 0.083 | 2.74 ± 0.07 |
| DSIASVLSPDSNIMSDS [GAL11] | 2.74 ± 0.1 | 2.98 ± 0.073 | 3.03 ± 0.064 | 3.09 ± 0.099 |
| DNPDQGISDMCRLFFTE [YCS4] | 3.37 ± 0.14 | 3.63 ± 0.15 | 3.03 ± 0.14 | 3.04 ± 0.15 |
| KNSSQLLNEWSHNVDEL [RPN5] | 2.75 ± 0.057 | 2.81 ± 0.05 | 2.9 ± 0.045 | 2.64 ± 0.049 |
| IRKFFGLSKEDDVRDFV [RPS6A] | 3.43 ± 0.1 | 3.35 ± 0.098 | 3.38 ± 0.12 | 3.32 ± 0.098 |
| MSLKKCQEEVSTIEKDM [SMC2] | 2.48 ± 0.1 | 2.73 ± 0.12 | 2.75 ± 0.14 | 2.79 ± 0.2 |
| NLEKNYLAKLSKQLSLE [IRR1] | 3.19 ± 0.14 | 3.34 ± 0.12 | 2.55 ± 0.13 | 3.14 ± 0.084 |
| NVDQTKTQCPNYDTCGG [RPC11] | 3.48 ± 0.13 | 3.15 ± 0.18 | 3.06 ± 0.08 | 3.21 ± 0.093 |
| YKAISAQADKQDISSST [FAS2] | 2.91 ± 0.073 | 2.87 ± 0.058 | 2.3 ± 0.062 | 2.83 ± 0.045 |
